# Assay results as given in US20100221257A1 (AstraZeneca / MedImmune, published 2010).
# T1: human IL-1R1, endogenous on human cells (HeLa cells; whole blood) (human, UniProt P14778 18-569)
# T1 sequence (looked up): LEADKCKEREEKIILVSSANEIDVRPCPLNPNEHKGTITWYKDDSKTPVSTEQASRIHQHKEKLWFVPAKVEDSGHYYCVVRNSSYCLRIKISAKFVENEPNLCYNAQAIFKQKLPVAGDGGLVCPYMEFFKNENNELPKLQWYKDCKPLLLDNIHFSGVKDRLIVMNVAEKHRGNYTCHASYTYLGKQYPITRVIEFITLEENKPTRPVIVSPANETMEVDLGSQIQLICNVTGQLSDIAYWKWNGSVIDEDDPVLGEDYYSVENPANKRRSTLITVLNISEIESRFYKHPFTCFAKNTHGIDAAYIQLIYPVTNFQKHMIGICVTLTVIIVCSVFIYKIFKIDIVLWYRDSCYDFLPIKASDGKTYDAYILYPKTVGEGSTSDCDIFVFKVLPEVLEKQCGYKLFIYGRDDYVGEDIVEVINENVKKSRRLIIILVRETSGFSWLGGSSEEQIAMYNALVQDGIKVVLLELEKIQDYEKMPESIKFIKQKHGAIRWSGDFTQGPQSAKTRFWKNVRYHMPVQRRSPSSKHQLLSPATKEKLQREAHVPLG
# T2: human recombinant IL1sRII (human, UniProt P27930 14-343)
# T2 construct: also called Human IL1sRII
# T2 sequence (looked up): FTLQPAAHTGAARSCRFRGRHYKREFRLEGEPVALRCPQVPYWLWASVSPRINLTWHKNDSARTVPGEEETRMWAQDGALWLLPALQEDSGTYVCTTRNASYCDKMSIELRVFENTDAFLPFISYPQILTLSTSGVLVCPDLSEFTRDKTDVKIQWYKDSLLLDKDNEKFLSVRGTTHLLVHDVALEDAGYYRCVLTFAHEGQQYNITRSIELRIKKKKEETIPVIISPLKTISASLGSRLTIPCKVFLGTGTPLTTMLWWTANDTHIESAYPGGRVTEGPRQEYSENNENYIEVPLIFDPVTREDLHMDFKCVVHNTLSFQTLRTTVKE
# T3: human recombinant IL18R alpha/IL-1 R5/Fc (human, UniProt Q13478 19-329, limits assumed)
# T3 construct: Bought; also called IL18R alpha Fc; not shown: Fc of the bought fusion protein, not described
# T3 sequence (looked up): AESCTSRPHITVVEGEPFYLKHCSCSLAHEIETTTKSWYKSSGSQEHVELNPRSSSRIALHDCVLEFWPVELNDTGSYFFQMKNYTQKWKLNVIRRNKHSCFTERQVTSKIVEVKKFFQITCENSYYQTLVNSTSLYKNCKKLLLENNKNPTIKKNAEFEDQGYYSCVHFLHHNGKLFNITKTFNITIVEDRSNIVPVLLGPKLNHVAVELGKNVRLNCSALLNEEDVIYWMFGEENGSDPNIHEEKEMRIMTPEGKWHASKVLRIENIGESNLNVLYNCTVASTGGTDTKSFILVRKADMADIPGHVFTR
# T4: recombinant human IL-1 R4 (ST2)/Fc (human, UniProt Q01638-2 19-328, limits assumed)
# T4 construct: Bought; not shown: Fc of the bought fusion protein, not described
# T4 sequence (looked up): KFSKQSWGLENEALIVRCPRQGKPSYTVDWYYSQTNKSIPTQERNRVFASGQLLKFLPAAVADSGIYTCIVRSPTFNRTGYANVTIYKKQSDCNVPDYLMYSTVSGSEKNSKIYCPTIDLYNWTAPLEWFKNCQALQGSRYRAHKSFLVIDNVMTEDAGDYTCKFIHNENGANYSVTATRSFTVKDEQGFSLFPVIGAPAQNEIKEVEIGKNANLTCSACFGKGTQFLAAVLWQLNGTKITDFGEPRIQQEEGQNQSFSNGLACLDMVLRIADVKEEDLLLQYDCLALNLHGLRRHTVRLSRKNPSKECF
# Assays:
# [1] = target: T1, human IL-1R1, endogenous on human cells …; assay: cell-based or functional assay
# [2] = target: T1, human IL-1R1, endogenous on human cells …; assay: cell-based or functional assay; remark: listed apart in the source
# [3] = target: T2, human recombinant IL1sRII; assay: DELFIA epitope competition; no inhibition of biotinylated huIL-1RFc binding to the adsorbed IgG
# Protocol: (§1) Titrations of non biotinylated purified human recombinant IL1sRII (R&D Systems), human recombinant IL-1R6/IL1 R rpt/Fc (R&D Systems), human recombinant IL18R alpha/IL-1 R5/Fc (R&D systems) and recombinant human IL-1 R4 (ST2)/Fc (R&D systems) were tested in each assay to establish the potency for each structurally related family member, as measured by IC₅₀ values in the assay.
# (§2) Purified IgG were adsorbed onto 96-well Maxisorp microtitre plates (Nunc) in PBS at a concentration which gave a significant signal when biotinylated human HIS IL1RFc was added at approximately its estimated KD for that particular IgG. Excess IgG was washed away with PBS-Tween (0.1% v/v) and the wells were blocked with non-fat dried milk in PBS (3% w/v) for 1 h. […] Non-biotinylated human HIS IL1RFc was included as a positive control. 25 μl of this dilution series was added to the blocked IgG assay plate.
# (§3) 25 μl of 1.4 nM biotinylated human HIS IL1RFc was added to the assay plate. The plate was then sealed and incubated at room temperature for 2 h. Unbound antigen was removed by washing with PBS-Tween (0.1% v/v), while the remaining biotinylated human IL1RFc was detected by streptavidin-Europium3+ conjugate (DELFIA® detection, PerkinElmer). Time-resolved fluorescence was measured at 620 nm on an EnVision plate reader (PerkinElmer). Fluorescence data was plotted as europium counts. IC₅₀ values were determined using GraphPad Prism software by curve fitting using a four-parameter logistic equation (Equation 3).
# [4] = target: T3, human recombinant IL18R alpha/IL-1 R5/Fc; assay: as above
# Protocol: as §1, §2, §3
# [5] = target: T4, recombinant human IL-1 R4 (ST2)/Fc; assay: as above
# Protocol: as §1, §2, §3
"mean IC50 for the 6 donors, inhibition of IL-1β induced IL-6 production in human whole blood [1] [nM]","IC50, inhibition of IL-1β induced IL-6 production in human whole blood, donor 1 [2] [nM]","IC50, inhibition of IL-1β induced IL-6 production in human whole blood, donor 2 [2] [nM]","IC50, inhibition of IL-1β induced IL-6 production in human whole blood, donor 3 [2] [nM]","IC50, inhibition of IL-1β induced IL-6 production in human whole blood, donor 4 [2] [nM]","IC50, inhibition of IL-1β induced IL-6 production in human whole blood, donor 5 [2] [nM]","IC50, inhibition of IL-1β induced IL-6 production in human whole blood, donor 6 [2] [nM]",binding result [3],binding result [4],binding result [5],Binder
0.229,0.091,0.295,0.116,0.309,0.167,0.321,no binding,no binding,no binding,"Antibody 6GL IgG2 (antibody, V domains shown, Germlined IgG2, lambda light chain; also called Antibody 6 IgG2; 28PL GL) VH: not shown VL: QSVLTQPPSVSGAPGQRVTISCTGSSSNIGAGYDVHWYQQLPGTAPKLLIYGDTHRPSGVPDRFSGSKSGTSASLAITGLQAEDEADYYCQSYDTVRLHHVFGGGTKLTVL"
–,–,–,–,–,–,–,no binding,no binding,no binding,"Antibody 8GL IgG2 (antibody, V domains shown, Germlined IgG2, lambda light chain) VH: not shown VL: QSVLTQPPSVSGAPGQRVTISCTGSSSNIGAGYDVHWYQQLPGTAPKLLIYGDTHRPSGVPDRFSGSKSGTSASLAITGLQAEDEADYYCQSYDTHLVAHVFGGGTKLTVL"
–,–,–,–,–,–,–,no binding,no binding,no binding,"Antibody 10GL IgG2 (antibody, V domains shown, Germlined IgG2, lambda light chain) VH: not shown VL: QSVLTQPPSVSGAPGQRVTISCTGSSSNIGAGYDVHWYQQLPGTAPKLLIYGDTHRPSGVPDRFSGSKSGTSASLAITGLQAEDEADYYCQSYDTRADDAHFGGGTKLTVL"
